Source: publication PMC6289497 (ACS Omega, 2018)

Tests used:
[1] = target: human metapneumovirus (HMPV) strain CAN97-83 M2-1 protein (human metapneumovirus strain CAN97-83); assay: Gdm.HCl-induced equilibrium denaturation
SEC = target: the molecule itself; assay: SEC

| Molecule | stoichiometry N [1] | binding result (SEC) |
| --- | --- | --- |
| human metapneumovirus (HMPV) strain CAN97-83 M2-1 protein (natural protein) | 4 |  |
| H25A RSV-M2-1 (natural protein) MSRRNPCKFEIRGHCLNGKRCHFSANYFEWPPHALLVRQNFMLNRILKSMDKSIDTLSEISGAAELDRTEEYALGVVGVLESYIGSINNITKQSACVAMSKLLTELNSDDIKKLRDNEELNSPKIRVYNTVISYIESNRKNNKQTIHLLKRLPADVLKKTIKNTLDIHKSITINNPKESTVSDTNDHAKNNDTT |  | binds |
| H25C RSV-M2-1 (natural protein) MSRRNPCKFEIRGHCLNGKRCHFSCNYFEWPPHALLVRQNFMLNRILKSMDKSIDTLSEISGAAELDRTEEYALGVVGVLESYIGSINNITKQSACVAMSKLLTELNSDDIKKLRDNEELNSPKIRVYNTVISYIESNRKNNKQTIHLLKRLPADVLKKTIKNTLDIHKSITINNPKESTVSDTNDHAKNNDTT |  | binds |
